Assay [1] has as its target T1, TrkB (human, UniProt Q16620). Briefly: yeast.
The target in assay [2] is T1, TrkB. Briefly: yeast. This is another data set of the same source.
Another assay has as its target Streptavidin-PE (Streptomyces avidinii, UniProt P22629). Briefly: yeast.
The next assay addresses GAPDH (human, UniProt P04406). Briefly: yeast.
The target in assay [3] is T1, TrkB. Briefly: yeast. This is another data set of the same source.
In another assay the target is T2, TrkA/Fc (human, UniProt P04629).
T2 chain: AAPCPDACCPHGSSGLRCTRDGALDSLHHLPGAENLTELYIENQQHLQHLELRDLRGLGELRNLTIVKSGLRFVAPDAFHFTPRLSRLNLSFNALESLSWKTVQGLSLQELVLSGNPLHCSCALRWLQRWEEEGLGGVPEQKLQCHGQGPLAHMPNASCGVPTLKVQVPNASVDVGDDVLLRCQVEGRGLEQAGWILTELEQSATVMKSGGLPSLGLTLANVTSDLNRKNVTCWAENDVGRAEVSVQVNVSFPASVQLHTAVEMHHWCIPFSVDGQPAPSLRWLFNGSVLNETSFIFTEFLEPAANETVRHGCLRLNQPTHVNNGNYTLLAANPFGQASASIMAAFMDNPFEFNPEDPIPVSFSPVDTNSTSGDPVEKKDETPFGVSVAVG
The assay is described as follows: yeast.

The next assay deals with TrkC/Fc (human, UniProt Q16288). Briefly: yeast.
TrkC/Fc, sequence (Q16288 32-429): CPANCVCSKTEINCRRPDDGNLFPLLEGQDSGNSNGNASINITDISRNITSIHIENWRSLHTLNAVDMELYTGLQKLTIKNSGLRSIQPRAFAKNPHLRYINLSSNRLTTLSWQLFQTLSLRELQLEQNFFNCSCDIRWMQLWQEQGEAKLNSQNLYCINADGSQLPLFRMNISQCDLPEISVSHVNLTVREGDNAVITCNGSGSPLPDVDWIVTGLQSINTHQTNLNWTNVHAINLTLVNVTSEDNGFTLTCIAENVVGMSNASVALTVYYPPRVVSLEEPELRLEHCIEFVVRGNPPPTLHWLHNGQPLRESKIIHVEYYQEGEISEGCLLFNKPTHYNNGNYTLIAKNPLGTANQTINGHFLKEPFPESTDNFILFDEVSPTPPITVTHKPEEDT
Assay [4] addresses T1, TrkB. Briefly: competition, solution phase.
For assay [5], the target named is T1, TrkB. The assay is described as follows: FACS, soluble GFAb on TrkB-loaded beads. In general terms: In flow cytometry, cells or beads pass a laser one at a time.

Broadly, the Kd is the constant that tells how readily two partners part at equilibrium. Low values mean higher affinity, high ones lower affinity.

Where only a bound is given, the exact number is not on record here.

Streptavidin-PE, sequence (P22629 37-163): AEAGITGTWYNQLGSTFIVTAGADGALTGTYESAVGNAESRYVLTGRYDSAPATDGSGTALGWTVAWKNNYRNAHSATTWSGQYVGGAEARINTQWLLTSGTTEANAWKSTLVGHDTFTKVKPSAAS
T1 sequence (Q16620 32-430): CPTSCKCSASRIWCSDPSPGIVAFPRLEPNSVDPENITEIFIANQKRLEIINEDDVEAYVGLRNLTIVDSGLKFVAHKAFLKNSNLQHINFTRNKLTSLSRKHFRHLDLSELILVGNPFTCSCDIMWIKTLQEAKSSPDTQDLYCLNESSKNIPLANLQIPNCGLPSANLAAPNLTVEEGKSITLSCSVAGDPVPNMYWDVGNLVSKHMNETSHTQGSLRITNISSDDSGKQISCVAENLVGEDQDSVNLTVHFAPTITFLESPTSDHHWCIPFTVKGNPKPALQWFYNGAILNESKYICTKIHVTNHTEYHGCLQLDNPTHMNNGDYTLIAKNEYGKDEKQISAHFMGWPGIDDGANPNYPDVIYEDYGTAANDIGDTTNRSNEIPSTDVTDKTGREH
GAPDH, sequence (P04406 2-335): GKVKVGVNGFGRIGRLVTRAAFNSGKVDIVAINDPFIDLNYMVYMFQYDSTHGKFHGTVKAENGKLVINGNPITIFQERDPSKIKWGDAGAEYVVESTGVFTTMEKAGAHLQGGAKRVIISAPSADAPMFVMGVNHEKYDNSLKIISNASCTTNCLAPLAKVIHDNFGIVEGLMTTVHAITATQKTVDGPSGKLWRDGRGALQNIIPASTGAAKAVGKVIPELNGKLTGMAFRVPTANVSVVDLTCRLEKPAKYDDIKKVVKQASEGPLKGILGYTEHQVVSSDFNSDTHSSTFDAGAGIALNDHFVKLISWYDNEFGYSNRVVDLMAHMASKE

B1: 20-5-8 scaffold (designed binder)
chain 1: not shown
chain 2: LKQHFWSTPRTTS
chain 3: SRERDYRLDYTR
As to B1, the binding result in the assay with TrkB [1] is given as “no binding”.

B2: T3 172-173 loop only (designed binder)
chain 1: not shown
chain 2: LKQHFWSTPRTTS
chain 3: NAWVVHRR
In the assay with TrkB [2], B2 returned a Kd of 300 nM.

B3: GFAb 1.3 (designed binder)
chain 1: not shown
chain 2: AISRSFFST
chain 3: IRNLKYTN
modifications: conjugate with phycoerythrin
In the assay with Streptavidin-PE, B3 gave a Kd of 70 nM.

B4: GFAb G8 (designed binder)
chain 1: not shown
chain 2: SHCLFRKCY
chain 3: ARSIRMKV
Turning to B4, the Kd in the assay with GAPDH was above 500 nM.

B5: GFAb G7 (designed binder)
chain 1: not shown
chain 2: NVIYPFLYA
chain 3: RVTKTKHK
B5 had a Kd with GAPDH above 500 nM.

B6: GFAb T3 (designed binder)
chain 1: not shown
chain 2: VINPFTVRS
chain 3: NAWVVHRR
B6: the Kd is 3.2 nM with TrkB [3], 2 nM with TrkB [2], around 10 nM with TrkB [4] and 34 nM with TrkB [5]. The binding result with TrkA/Fc and with TrkC/Fc was “no binding” throughout.

B7: GFAb 2.17 (designed binder)
chain 1: not shown
chain 2: KARMRLFLM
chain 3: EYGDTLLS
modifications: conjugate with phycoerythrin
Turning to B7, binding with Streptavidin-PE was characterised by a dissociation constant (Kd) of 110 nM.

B8: T3 102-103 loop only (designed binder)
chain 1: not shown
chain 2: VINPFTVRS
chain 3: SRERDYRLDYTR
Take B8: binding with TrkB [2] was put at a Kd of 19 nM.

B9: GFAb G4 (designed binder)
chain 1: not shown
chain 2: RGVSKSFLL
chain 3: QGITKGYK
On to B9, for which, in the assay with GAPDH, the Kd is above 500 nM.

B10: GFAb G6 (designed binder)
chain 1: not shown
chain 2: RVSRFLLTT
chain 3: KSRIISSQ
Molecule B10 had an equilibrium dissociation constant (Kd) in the assay with GAPDH of 18 nM. This counts as double-digit nanomolar.

B11: GFAb 2.7 (designed binder)
chain 1: not shown
chain 2: VFSSLRYHV
chain 3: LRMDDTNP
modifications: conjugate with phycoerythrin
B11 came in with a Kd in the assay with Streptavidin-PE of 140 nM.
